Assay results: PMC3575510, “Antibiotic Inducibility of the mexXY Multidrug Efflux Operon of Pseudomonas aeruginosa: Involvement of the MexZ Anti-Repressor ArmZ” (PLoS ONE, 2013)

B1: unnamed (parent)
chain 1: MGNYIKPLSAGVALIASDSTWIEGKAIQQLQTTAELDGMCRVVGLPDLHPGRGYPVGAAFFSVGRFYPALVGNDIGCGMALWETGLALGKLSADKLEKRLGNLDLPLDETWSDCIEALDLPAREHWRALGTIGGGNHFAELQQVETVFDQAALHALGLDADRLQLLVHSGSRGLGQAILQEHVSLHGHAGLLDGSLEASAYLARHADALRFAEGNRQLIARRILERLRCDGLELLDINHNLVVPAQVDGVDGWLHRKGATPADQGVLVIPGSRGDYSYLVEPVPSAQSLFSLAHGAGRKWQRGECRERLAARFSVDQLGRTRLGSRVICGDRQLIYEEAPEAYKGIDSVVGALLEAGLLRLVARLKPVLTYKTRGECCR
chain 2: MARKTKEESQKTRDGILDAAERVFLEKGVGTTAMADLADAAGVSRGAVYGHYKNKIEVCLAMCDRAFGQIEVPDENARVPALDILLRAGMGFLRQCCEPGSVQRVLEILYLKCERSDENEPLLRRRELLEKQGQRFGLRQIRRAVERGELPARLDVELASIYLQSLWDGICGTLAWTERLRDDPWNRAERMFRAGLDSLRSSPYLLLADA

Variants of: B1
Assay: bacterial 2-hybrid assay (β-galactosidase activity in E. coli SU202)
Details: with partner chain of the complex shown; IPTG-induced cells; read off a plot

**Q.** chain 1 MGNYIKPLSAGVALIASDSTWIEGKAIQQLQTTAELDGMCRVVGLPDLHPGRGYPVGAAFFSVGRFYPALVGNDIGCGMALWETGLALGKLSADKLEKRLGNLDLPLDETWSDCIEALDLPAREHWRALGTIGGGNHFAELQQVETVFDQAALHALGLDADRLQLLVHSGSRGLGQAILQEHVSLHGHAGLLDGSLEASAYLARHADALRFAEGNRQLIAQRILERLRCDGLELLDINHNLVVPAQVDGVDGWLHRKGATPADQGVLVIPGSRGDYSYLVEPVPSAQSLFSLAHGAGRKWQRGECRERLAARFSVDQLGRTRLGSRVICGDRQLIYEEAPEAYKGIDSVVGALLEAGLLRLVARLKPVLTYKTRGECCR [chain 1 R221Q] was tested. Which response did it give?
**A.** 510 Miller Units

**Q.** How did the response turn out when chain 1 MGNYIKPLSAGVALIASDSTWIEGKAIQQLQTTAELDGMCRVVGLPDLHPGRGYPVGAAFFSVGRFYPALVGNDIGCGMALWETGLALGKLSADKLEKRLGNLDLPLDETWSDCIEALDLPAREHWRALGTIGGGNHFAELQQVETVFDQAALHALGLDADRLQLLVHSGSRGLGQAILQEHVSLHGHAGLLDGSLEASAYLARHADALRFAEGNRQLIAWRILERLRCDGLELLDINHNLVVPAQVDGVDGWLHRKGATPADQGVLVIPGSRGDYSYLVEPVPSAQSLFSLAHGAGRKWQRGECRERLAARFSVDQLGRTRLGSRVICGDRQLIYEEAPEAYKGIDSVVGALLEAGLLRLVARLKPVLTYKTRGECCR [chain 1 R221W] was run?
**A.** 680 Miller Units

**Q.** For chain 1 MGNYIKPLSAGVALIASDSTWIEGKAIQQLQTTAELDGMCRVVGLPDLHPGRGYPVGAAFFSVGRFYPALVGNDIGCGMALWETGLALGKLSADKLEKRLGNLDLPLDETWSDCIEALDLPAREHWRALGTIGGGNHFAELQQVETVFDQAALHALGLDADRLQLLVHSGSRGLGQAILQEHVSLHGHAGLLDGSLEASAYLARHADALRFAEGNRQLIARRILERLRCDGLELLDINHNLVVPAQVDGVDSWLHRKGATPADQGVLVIPGSRGDYSYLVEPVPSAQSLFSLAHGAGRKWQRGECRERLAARFSVDQLGRTRLGSRVICGDRQLIYEEAPEAYKGIDSVVGALLEAGLLRLVARLKPVLTYKTRGECCR [chain 1 G252S], which response is on record?
**A.** 700 Miller Units

**Q.** How did the response turn out when chain 1 MGNYIKPLSAGVALIASDSTWIEGKAIQQLQTTAELDGMCRVVGLPDLHPGRGYPVGAAFFSVGRFYSALVGNDIGCGMALWETGLALGKLSADKLEKRLGNLDLPLDETWSDCIEALDLPAREHWRALGTIGGGNHFAELQQVETVFDQAALHALGLDADRLQLLVHSGSRGLGQAILQEHVSLHGHAGLLDGSLEASAYLARHADALRFAEGNRQLIARRILERLRCDGLELLDINHNLVVPAQVDGVDGWLHRKGATPADQGVLVIPGSRGDYSYLVEPVPSAQSLFSLAHGAGRKWQRGECRERLAARFSVDQLGRTRLGSRVICGDRQLIYEEAPEAYKGIDSVVGALLEAGLLRLVARLKPVLTYKTRGECCR [chain 1 P68S] was run?
**A.** 610 Miller Units

**Q.** chain 1 MGNYIKPLSAGVALIASDSTWIEGKAIQQLQTTAELDGMCRVVGLPDLHPGRGYPVGAAFFSVGRFYPALVGNDIGCGMALWETGLALGKLSADKLEKRLGNLDLPLDETWSDCIEALDLPAREHWRALGTIGGGNHFAELQQVETVFDQAALHALGLDADRLQLLVHSGSRGLGQAILQEHVSLHGHAGLLDGSLEASAYLARHADALRFAEGNRQLIARRILERLRCDDLELLDINHNLVVPAQVDGVDGWLHRKGATPADQGVLVIPGSRGDYSYLVEPVPSAQSLFSLAHGAGRKWQRGECRERLAARFSVDQLGRTRLGSRVICGDRQLIYEEAPEAYKGIDSVVGALLEAGLLRLVARLKPVLTYKTRGECCR [chain 1 G231D] was tested. Which response did it give?
**A.** 730 Miller Units

**Q.** How did the response turn out when chain 1 MGNYIKPLSAGVALIASDSTWIEGKAIQQLQTTAELDGMCRVVGLPDLHPGRGYPVGAAFFSVGRFYPALVGNDISCGMALWETGLALGKLSADKLEKRLGNLDLPLDETWSDCIEALDLPAREHWRALGTIGGGNHFAELQQVETVFDQAALHALGLDADRLQLLVHSGSRGLGQAILQEHVSLHGHAGLLDGSLEASAYLARHADALRFAEGNRQLIARRILERLRCDGLELLDINHNLVVPAQVDGVDGWLHRKGATPADQGVLVIPGSRGDYSYLVEPVPSAQSLFSLAHGAGRKWQRGECRERLAARFSVDQLGRTRLGSRVICGDRQLIYEEAPEAYKGIDSVVGALLEAGLLRLVARLKPVLTYKTRGECCR [chain 1 G76S] was run?
**A.** 470 Miller Units

**Q.** chain 1 MGNYIKPLSAGVALIASDSTWIEGKAIQQLQTTAELDGMCRVVGLPDLHPGRGYPVGAAFFSVGRFYPALVGNDIGCGMALWETGLALGKLSADKLEKRLGNLDLPLDETWSDCIEALDLPAREHWRALGTIGGGNHFAELQQVETVFDQAALHALGLDADRLQLLVHSGSRGLGQAILQEHVSLHGHAGLLDGSLEASAYLARHADALRFAEGNCQLIARRILERLRCDGLELLDINHNLVVPAQVDGVDGWLHRKGATPADQGVLVIPGSRGDYSYLVEPVPSAQSLFSLAHGAGRKWQRGECRERLAARFSVDQLGRTRLGSRVICGDRQLIYEEAPEAYKGIDSVVGALLEAGLLRLVARLKPVLTYKTRGECCR [chain 1 R216C] was tested. Which response did it give?
**A.** 720 Miller Units
